Assay results from patent publication US20250376529A1 (Amgen, published 2025).
Substitutions are numbered along the chain they refer to.

Columns and labels:
[1] = target: T1, human GIPR transiently expressed on 293T cells (human, UniProt P48546 22-466); assay: cell-based or functional assay
T1 sequence: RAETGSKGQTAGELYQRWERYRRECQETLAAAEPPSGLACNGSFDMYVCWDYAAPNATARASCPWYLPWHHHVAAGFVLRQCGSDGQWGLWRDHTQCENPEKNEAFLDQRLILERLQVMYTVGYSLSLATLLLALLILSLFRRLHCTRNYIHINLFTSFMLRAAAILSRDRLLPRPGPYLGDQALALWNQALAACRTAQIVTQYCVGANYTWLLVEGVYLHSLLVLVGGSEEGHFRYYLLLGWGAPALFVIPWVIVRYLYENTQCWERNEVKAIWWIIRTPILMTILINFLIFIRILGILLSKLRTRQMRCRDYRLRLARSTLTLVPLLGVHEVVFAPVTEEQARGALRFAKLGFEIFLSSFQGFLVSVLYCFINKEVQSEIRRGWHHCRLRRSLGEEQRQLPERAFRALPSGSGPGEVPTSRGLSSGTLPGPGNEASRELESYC

Rhesus GIPR = target: T2, Rhesus GIPR (rhesus, UniProt F7E1R9 22-466); assay: cell-based or functional assay
T2 sequence: T1 sequence with K7E, A31T, D51N, M160T, A186V, L226I, F365L, S422G, S438R, E440V

huGIPR ECD = target: T3, huGIPR ECD (human, UniProt P48546 22-139, limits assumed); assay: SPR (MASS-1), captured mAb, 200 nM huGIPR ECD
T3 construct: Soluble ECD injected in the MASS-1 assay; also called human GIPR extracellular domain
T3 sequence: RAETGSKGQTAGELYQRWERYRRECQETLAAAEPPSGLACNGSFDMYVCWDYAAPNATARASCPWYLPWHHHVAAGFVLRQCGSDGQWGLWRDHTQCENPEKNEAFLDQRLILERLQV

- Hu GIPR CAMP Assay (Conc. mAb @ 60% Inhibition in nM) [1]: 1.04 nM
- Rhesus GIPR CAMP Assay (Conc. mAb @ 60% Inhibition in nM) (Rhesus GIPR): 0.52 nM
- koff (huGIPR ECD): 0.001 s⁻¹
B1: 2G10_LC1.006 (antibody, human IgG1, kappa, N297G, V domains shown)
VH: not shown
VL: EIVMTQSPATLSVSPGERATLSCRASQSVSSNLAWYQQKPGQAPRLLIYGAATRATGIPARVSGSGSGTEFTLTISSLQSEDFAVYYCQQYNNWPLTFGGGTKVEIKR
notes: also called iPS:361192; iPS:361194
